# Test: soluble on expression in E. coli; label from the status in PepcDB or PDB records
row,Sequence,soluble on expression in E. coli
1,MNKIRYPAVAGLFYPSHPDELIDMIEQCYLHKFGPKSMPVHGTYEKPIGLLCPHAGYVYSGPIQAHSYYELSKRVDALEETTVVILGPNHTGLGSGVSVMDGIWRTPLGDVKCDEEFVEELWRKCEIVDLDETAHLNEHSIEVQLPFLKHLELLNIAKFKIVPICMMFQDYETAVEVGYFIAKIAKELNRRIVVIASSDLTHYEPQEIASKKDAIVIKDILEMNEKELYEDVVNYNISMCGYGPVIAMLKAMKTLGAEKAKLLAYATSGDITGDYSAVVGYASAIVELEHHHHHH,soluble
2,MNKKNICALAVLSGLSFSAMALDCDPNLLPSWQDGASKTAIVNYVDQSTDASKKTFIPEQDRIAVFDNDGTLWSEKPYYFQLAFALDQVKNMAKEHPEWKTQEPFKSVLNNDIKNVFAGGEKALLDIVTATHSGMTVEEYQQTVAQWLEVAKDPHFNKAYTELTYKPMREMVTYLQDHDFKVYIVSGGGVDFMRTWAPEVYGIPEEQIIGSALKYKYDYNNSNPTVTKLGEILTIDDKAGKVENIQHIIGKKPVLAIGNSDGDHAMMQWATSQPNSMAMIVHHTDEAREWKYDRKSSVGHLDKAMDEANQRDNWYLIDMKNEWCTVY,soluble
3,MNKLLPTSTAGSLPKPSWLAQPEKLWSPWKLQDEELTEGKQDALRLSLQEQQHAGIDIVSDGEQTRQHFVTTFIEHLSGVDFEKRETVRIRNRYDASVPTVVGAVSRPKPVFVDDAKFLRQQTRQPIKWALPGPMTMIDTLFDAHYKSREKLAWEFAKILNQEAKELEAAGVDIIQFDEPAFNVFFDEVNDWGVATLERAIEGLNCETAVHICYGYGIKANTDWKQTLGSEWRQYEESFPKLQASTIDIVSLECHNSHVPIDLIELVRGKKVMVGAIDVASNTIETPQEVADTLRKALRFVDADKLYPSTNCGMAPLARHVARGKLSALSAGADIIRAELSAQLEHHHHHH,not soluble
4,MNKLVCSTFAILAIIAISQVQSAVLPVSSKEVALITSSASTTSSSETSIDTLGSSRVKRQGGCGCCGCGCGCCGCGGGGGGGCGCCCCRPKCCCCCRRCCTCCRTCCCTRCCTCCRPCCCGCGCGCGCCGCGGGGRKRRSLQNLRIALANKIEGIAKVVKGSAVEASVMNALAPVNDATVEEKKDVIN,not soluble
5,MNKNLKFTQMMIGISTMALSFGSIQTHVSAEETASYNILQMKPIGTETSKDEIVHATKADETLTFEERLKVGDFSQRPTLVMERDEIQLKQSYTLAELNKMPNSELIDTLSKISWNQITDLFQFNQDTKAFYQNKERMNVIINELGQRGRTFTKENSKGIETFVEVLRSAFYVGYYNNELSYLKERSFHEKCLPALKAIAKNPNFTLGTAEQDRVVAAYGKLIGNASSDTETVQYAVNVLKQYNDNLTTYVSDYAKGQAVYEIVKGIDYDIQSYLQDTNKQPNETMWYGKIDNFINEVNRIALVGNITNENSWLINNGIYYAGRLGKFHSNPYKGLEVITQAMSLYPRLSGPYFVAVEQIKTNYGGKDYSGKAVDLQKIREEGKRQYLPKTYTFDDGSIVFKTGDKVTEEKIKRLYWAAKEVKAQYHRVIGNDKALEPGNADDVLTIVIYNNPDEYQLNRQLYGYETNNGGIYIEEKRTFFTYERTPKQSIYSLEELFRHEFTHYLQGRYEVPGLFGSGEMYQNERLTWFQEGNAEFFAGSTRTNNVVPRKSMISGLSSDPASRYTAKQTLFSKYGSWDFYKYSFALQSYLYNHQFDTFDKLQDLIRVNDVKNYDSYRESLSNNTQLNAEYQAYMQQLIDNQDKYNVPQVTNDYLIQHAPKPLAEVKNEIVDVANIKDAKITKYESQFFNTFTVEGKYTGGTSKGESEDWKTMSKQVNRTLEQLSQKGWSGYKTVTAYFVNYRVNAANQFEYDIVFHGVATEEKEKTNTIVNMNGPYSGIVNEEIQFHSDGTKSENGKVTSYLWNFGDGTTSTEANPTHVYEEKGTYTVELTVKDRRGKESKEQTKVTVKQDPQTGEFHEEEKVLLFNTLVKGNLVTPDQTDVYTFDVTDTKEVDISVVNEQNIGMTWVLYHESDMQNYVACGEDEGNVIKGKFEAKPGKYYLNVYKFDDKNGEYSLLVK,not soluble
6,MNKVVLLCRPGFEKECAAEITDKAGQREIFGFARVKENAGYVIYECYQPDDGDKLIRELPFSSLIFARQWFVVGELLQHLPPEDRITPIVGMLQGVVEKGGELRVEVADTNESKELLKFCRKFTVPLRAALRDAGVLANYETPKRPVVHVFFIAPGCCYTGYSYSNNNSPFYMGIPRLKFPAEAPSRSTLKLEEAFHVFIPADEWDERLANGMWAVDLGACPGGWTYQLVKRNMWVYSVDNGPMAQSLMDTGQVTWLREDGFKFRPTRSNISWMVCDMVEKPAKVAALMAQWLVNGWCRETIFNLKLPMKKRYEEVSHNLAYIQAQLDEHGINAQIQARQLYHDREEVTVHVRRIWAAVGGRRDER,not soluble
7,MNLFGQKDRGNHVSGVDRGKVIMYGLSTCVWCKKTKKLLTDLGVDFDYVYVDRLEGKEEEEAVEEVRRFNPSVSFPTTIINDEKAIVGFKEKEIRESLGF,soluble
8,MNLIKEDMRVKVHMEGNVNGHAFVIEGEGKGKPYEGTQTANLTVKEGAPLPFSYDILTTAVHYGNRVFTKYPEDIPDYFKQSFPEGYSWERTMTFEDKGICTIRSDISLEGDCFFQNVRFKGTNFPPNGPVMQKKTLKWEPSTEKLHVRDGLLVGNINMALLLEGGGHYLCDFKTTYKAKKVVQLPDAHFVDHRIEILGNDSDYNKVKLYEHAVARYSPLPSQVWHHHHHH,soluble
9,MNLKQLEVFLAVAESGSFSRGAEATFLTQSTVSQHIAALESEVGVRLLDRTSRGALLTEGGKILLEHARKVVAGSREISKVMRRFRGLEEAELRIGGSTIPADYMIPAMLASFLGRHPGVQVTLLQGDSRDILDRIEREDAEVGIIGSRFDEEGFTFTPLGRDEIRLIAAPDHPLAGTGAVPLAELANHGFVFRELGSGTAKSVAEALAGAGLPAEKLHVRACLGSNEAVKQAVAAGLGLSFVSELSVRKELARGELVELPVEGLTIARTFYLVARTGRELSPPAVAFIGELTGTRLA,not soluble
10,MNLPAHTALFTPSWHAELELGYGRFYDCTRPTQRRHKGPLRVQKHLYAEGPEVCQHIIVHPPGGIAGGDRLDISVNVGAHAWAQLTSPGAAKWYRAASPAFQQLELHVQPGATLEWLPQETIVFSNAQAELTTRIELHGDARLCYWDVVALGRPASGERFEHGHFQSHLDIRRDGTLLWHERQRIIGADGLLDSPIGLDGKTVFATLLLTGDVDSDLLEVCRSLSMPSPVRGNLTQLPGLIVARCLADEALHARAWLIEIWKRLRPALLGREAVMPRIWNTLEHHHHHH,not soluble
11,MNLPLEYHPFPAILPKSATVAMLGTFPPTSEKRCMEFHYPNFQNDMWRIMGLLFYKNLDHFRVDQEKRFDPVRIEAFLREKGIALCSSAQTAIRLKGNASDKDLKIIDAIDMQALLTELPQLKWLFTTGGLATETLLSLLPEKSKLPKTNEWINYPYTTDRTLYLYRLPSTSRAYPLSLAKKVEAYRQFFVRVGLEHHHHHH,not soluble
12,MNLRIPWKEVYYLGYNMGNYIKISEPELLFVLRNKPQIKDRLKLDEKTIIKEGVKKYKNFWEIYYTVKDLILRGYRVRFDGFFIELYEKGIIPGTIEQDYLVYPVSGEIRMTWGELLDIYNKAIARKSKFMLAIVDSEGDVTYYEFRKLRSNK,soluble
13,MNMVSQGVKGGEYRSPQKNYTQLTFKNVDAIGHPQGAISQMLNSTGYYCQSQTTPFVPYFLSSLDFFAWRQAIPEMFYPEALVPGMREIRGNGETWGNIFPRSGAVTQVDDYKASAVSVHRVADFLTRMAQPHIYLPTAKQEQGQNGHWYPDPVQEGEVGNHKWQQLHPQLSQSCSIFPDTPPAQLSENGSYAWALWRPYKCCKRRGQTFLYSVDWSNLEHHHHHH,not soluble
14,MNNHFKCIGIVGHPRHPTALTTHEMLYRWLCDQGYEVIVEQQIAHELQLKNVPTGTLAEIGQQADLAVVVGGDGNMLGAARTLARYDINVIGINRGNLGFLTDLDPDNALQQLSDVLEGRYISEKRFLLEAQVCQQDRQKRISTAINEVVLHPGKVAHMIEFEVYIDETFAFSQRSDGLIISTPTGSTAYSLSAGGPILTPSLDAITLVPMFPHTLSARPLVINSSSTIRLRFSHRRSDLEISCDSQIALPIQEGEDVLIRRCDYHLNLIHPKDYSYFNTLSTKLGWSKKLFMAGDPLEHHHHHH,not soluble
15,MNNNTTAPTYTLRGLQLIGWRDMQHALDYLFADGQLKQGTLVAINAEKMLTIEDNAEVRELINAAEFKYADGISVVRSVRKKYPQAQVSRVAGADLWEELMARAGKEGTPVFLVGGKPEVLAQTEAKLRNQWNVNIVGSQDGYFKPEQRQALFERIHASGAQIVTVAMGSPKQEIIMRDCRLVHPDALYMGVGGTYDVFTGHVKRAPKIWQTLGLEWLYRLLSQPSRIKRQLRLLRYLRWHYTGNL,soluble
16,MNNQLVISDYIFPIHQYGKMGTIHSVFERSFNLKVQDQLINVANFHNYLSSFGMFLPDQLFQEIFPYVQQGNKVKITENQLTFYSTVGVKTIQLTPAEVVSLNITHFKLEKDQLRLLRDRLLARNLERRIGLPLDERAKHIFKKMSQKQKVWTLSEWQEVTNYLIGRGKGLTPSGDDILVAYQTILFILADERAAALAATLSAANLSTTDVSKGYIASSAKGYVNSLLYQLLLDLENHRDNRVDENIDRIIQIGHSSGKDMSFGMLLALQSVELDEK,not soluble
17,MNNSEQLIALKESETAFLKYFNKADYELVDFSVVEKLDWKQLNHEDLQQMGERNFWQHEHQIYALRNDFTDQLLRYYSMYPTAATKVAYTGLIIRNNEAAVQVGLENYAPSLANVQQSLKLFIQFIQQQLRDNVHFVVLGHYQLLDALLDKSLQTPDILSMIEERNLSGLVTYLSTEHPIVQILKENTQQQLNVLEHYIPNDHPALVELKIWERWLHTQGYKDIHLDITAQPPRSYYTGLFIQCHFAENESRVLTGGYYKGSIEGFGLGLTL,soluble
18,MNPGGAEVSVVIPAWNAEATLGRALASVRAQTLAPRQVIVVNDGSSDATPEIAARMATKTFPVTVIDRTGRGSGPAAARNAGIAAAGEPFVAFLDADDVWLPDKLARQMAALRASPDAVLCCCDAQWVGEDAPARTAHPTIYEDRPIKGGAEAWKEILLDCYVGTPCVVARRAALIEAGGFDERLVVGEDQDLWIRLALQGPVIALPEVLVRYGLSADSHMARHRALAASLWLPHFEALVSGLGARLSAGERDAILRARLWRMARSVYLDGRKDLGLSLMARAVAHGLPRRARMVFLARARLRSALGRNGLEHHHHHH,not soluble
19,MNPKHFIAFSALFAATQAEALPVASVSPDTVTVSPSAPYTDTNGLLTDYGNAAASPWMKKLRSVAQGSGEAFRILQIGDSHTAGDFFTDALRKRLQKTWGDGGIGWVYPANVKGQRMAAVRYNGNWQSLNSRSAAADFPLGGILAQTGSGGSMTLTASDGKTGKQRVSLFAKPLLAEQTLTVNGNTVSANGGGWQVLDTGAALPLAIQTEMPWDIGFINIENPAGGITVSAMGINGAQLTQWSKWRADRMNDLAQTGADLVILSYGTNEAFNNNIDIADTEQKWLDTVRQIRDSLPAAGILIIGAPESLKNTLGVCGTRPVLLTEVQQMQRRVARQGQTMFWSWQNAMGGICSMKNWLNQGWAAKDGVHFSAQGYRRAAEMLADSLEELVRAAAIR,soluble
